Laboratory results published in paper PMC9765439, “Systems-Wide Dissection of Organic Acid Assimilation in Pseudomonas aeruginosa Reveals a Novel Path To Underground Metabolism” (mBio, 2022).

How the values were obtained:
[1] = target: the molecule itself; assay: crystal structure; PrpC apo and oxaloacetate-bound (2.5 mM oxaloacetate) crystals; sitting drop, 100 to 200 mM Bis-Tris pH 5.5, 20 to 30% PEG 3350, 0.1% D-xylose, 19°C
[2] = target: the molecule itself; assay: crystal structure; GltA apo, 20 to 25 mg/mL, sitting drop vapor diffusion, 19°C

Protein | stoichiometry N [1] | stoichiometry N [2]
2-methylcitrate synthase PrpC from Pseudomonas aeruginosa (enzyme, 2-methylcitrate synthase PrpC of Pseudomonas aeruginosa; PCR-amplified ORF of prpC cloned into pET-19m; printed length 376 amino acids, theoretical monomer mass 41.7 kDa; also called PrpCPa; 2-MCS; source: E. coli, purified (Ni-NTA, His6 tag cleaved with TEV protease); not shown: His6, N-terminal, cleaved) MAEAKVLSGAGLRGQVAGQTALSTVGQEGAGLTYRGYDVRDLAAAAIFEEVAYLLLYGELPNKQQLDAYLKKLQGQRDLPQALKEVLERIPKDAHPMDVMRTGASVLGTLEPELSFDQQRDVADRLLAAFPAIMTYWYRFTHEGQRIDCNSDEPTIGGHFLALLHGKKPSELHVKVMNVSLILYAEHEFNASTFTARVCASTLSDLYSCVTGAIGSLRGPLHGGANEAAMELIERFSSPQEATAELLKMLERKDKIMGFGHAIYKDSDPRNEVIKGWSKQLADEVGDKVLFAVSEAIDKTMWEQKKLFPNADFYHASAYHFMGIPTKLFTPIFVCSRTSGWTAHVFEQRANNRIIRPSAEYTGVEQRAFVPLEQR | 2 | –
citrate synthase GltA from Pseudomonas aeruginosa (enzyme, UniProt P14165 1-428, looked up, citrate synthase GltA of Pseudomonas aeruginosa; PCR-amplified ORF of gltA cloned into pET-19m; printed length 429 amino acids; The hexamer is that of the crystal's asymmetric unit; also called GltAPa; citrate (CIT) synthase; source: E. coli, purified (Ni-NTA, His6 tag cleaved with TEV protease); not shown: His6, N-terminal, cleaved) MADKKAQLIIEGSAPVELPVLSGTMGPDVVDVRGLTATGHFTFDPGFMSTASCESKITYIDGDKGVLLHRGYPIEQLAEKSDYLETCYLLLNGELPTAAQKEQFVGTIKNHTMVHEQLKTFFNGFRRDAHPMAVMCGVIGALSAFYHDSLDINNPKHREVSAHRLIAKMPTIAAMVYKYSKGEPMMYPRNDLNYAENFLHMMFNTPCETKPISPVLAKAMDRIFILHADHEQNASTSTVRLAGSSGANPFACIASGIAALWGPAHGGANEAVLRMLDEIGDVSNIDKFVEKAKDKNDPFKLMGFGHRVYKNFDPRAKVMKQTCDEVLQELGINDPQLELAMKLEEIARHDPYFVERNLYPNVDFYSGIILKAIGIPTSMFTVIFALARTVGWISHWQEMLSGPYKIGRPRQLYTGHTQRDFTALKDRG | – | 6
